Reference: PMC5591402, “Facile Affinity Maturation of Antibody Variable Domains Using Natural Diversity Mutagenesis” (Frontiers in Immunology, 2017)
Where no end group is shown, it is not given here.

T1: TAMRA-labeled α-synuclein peptide (Homo sapiens, also: TAMRA fluorophore, position not given here)
T1 construct: the TAMRA peptide is called the α-synuclein peptide; also called C-terminal α-synuclein peptide; antigen; source: synthetic peptide, bought: Genemed Synthesis Inc
T1 chain: GYQDYEPEA


What was measured:
[1] = target: T1, TAMRA-labeled α-synuclein peptide; test: fluorescence polarisation; VHH titrated (0.8 nM-1.6 µM) against 2 nM TAMRA-labeled α-synuclein peptide; PBS with 0.001% BSA and 0.001% Tween 20; room temperature, 3 h; fit that accounts for antibody not in excess of antigen; details: both partners purified
[2] = target: T1, TAMRA-labeled α-synuclein peptide; test: fluorescence polarisation; alanine scan: single VHH concentrations (44, 133 and 400 nM) with 2 nM TAMRA-labeled α-synuclein peptide; background-subtracted signal of the mutant divided by that of wild type; details: both partners purified

Binder	binding relative to wild type (normalised polarisation signal) [2] [%]	binding result [1]	further results
wild-type N2 VHH antibody (VHH, also called NbSyn2; wild-type N2 variable domain; not shown: His6, C-terminal, kept) VHH: QGQLVESGGGSVQAGGSLRLSCAASGIDSSSYCMGWFRQRPGKEREGVARINGLGGVKTAYADSVKDRFTISRDNAENTVYLQMNSLKPEDTAIYYCAAKFSPGYCGGSWSNFGYWGQGTQVTVSS	–	–	Kd [1]: 57.6 nM
N2 VHH alanine mutant L52b (VHH, PDB 2X6M) with the stated change; Kabat numbering) VHH: QGQLVESGGGSVQAGGSLRLSCAASGIDSSSYCMGWFRQRPGKEREGVARINGAGGVKTAYADSVKDRFTISRDNAENTVYLQMNSLKPEDTAIYYCAAKFSPGYCGGSWSNFGYWGQGTQVTVSS	> 50	–	–
N2 VHH alanine mutant S97 (VHH, PDB 2X6M) with the stated change; Kabat numbering) VHH: QGQLVESGGGSVQAGGSLRLSCAASGIDSSSYCMGWFRQRPGKEREGVARINGLGGVKTAYADSVKDRFTISRDNAENTVYLQMNSLKPEDTAIYYCAAKFAPGYCGGSWSNFGYWGQGTQVTVSS	> 50	–	–
N2.17 VHH (VHH, PDB 2X6M) with four CDR mutations; Kabat numbering; Selected from the natural diversity library by yeast display; also called N2.17 variant; not shown: His6, C-terminal, kept) VHH: QGQLVESGGGSVQAGGSLRLSCAASGIDSSSYCMGWFRQRPGKEREGVARINGWGGVKTAYADSVKDRFTISRDNAENTVYLQMNSLKPEDTAIYYCAAKSSPGYCGGTWFNFGYWGQGTQVTVSS	–	–	Kd [1]: 13.2 nM
N2 VHH alanine mutant G100c (VHH, PDB 2X6M) with the stated change; Kabat numbering) VHH: QGQLVESGGGSVQAGGSLRLSCAASGIDSSSYCMGWFRQRPGKEREGVARINGLGGVKTAYADSVKDRFTISRDNAENTVYLQMNSLKPEDTAIYYCAAKFSPGYCGASWSNFGYWGQGTQVTVSS	> 50	–	–
N2 VHH alanine mutant F96 (VHH, PDB 2X6M) with the stated change; Kabat numbering) VHH: QGQLVESGGGSVQAGGSLRLSCAASGIDSSSYCMGWFRQRPGKEREGVARINGLGGVKTAYADSVKDRFTISRDNAENTVYLQMNSLKPEDTAIYYCAAKASPGYCGGSWSNFGYWGQGTQVTVSS	> 50	–	–
N2 VHH alanine mutant G100b (VHH, PDB 2X6M) with the stated change; Kabat numbering) VHH: QGQLVESGGGSVQAGGSLRLSCAASGIDSSSYCMGWFRQRPGKEREGVARINGLGGVKTAYADSVKDRFTISRDNAENTVYLQMNSLKPEDTAIYYCAAKFSPGYCAGSWSNFGYWGQGTQVTVSS	> 50	–	–
N2 VHH alanine mutant V55 (VHH, PDB 2X6M) with the stated change; Kabat numbering) VHH: QGQLVESGGGSVQAGGSLRLSCAASGIDSSSYCMGWFRQRPGKEREGVARINGLGGAKTAYADSVKDRFTISRDNAENTVYLQMNSLKPEDTAIYYCAAKFSPGYCGGSWSNFGYWGQGTQVTVSS	> 50	–	–
N2.12 VHH (VHH, PDB 2X6M) with six CDR mutations; Kabat numbering; Selected from the natural diversity library by yeast display; also called N2.12 variant; not shown: His6, C-terminal, kept) VHH: QGQLVESGGGSVQAGGSLRLSCAASGIDSSSYCMGWFRQRPGKEREGVGRINGWRGIKTAYADSVKDRFTISRDNAENTVYLQMNSLKPEDTAIYYCAAKSSPGYCGGTWSNFGYWGQGTQVTVSS	–	–	Kd [1]: 7.6 nM
N2 VHH alanine mutant G99 (VHH, PDB 2X6M) with the stated change; Kabat numbering) VHH: QGQLVESGGGSVQAGGSLRLSCAASGIDSSSYCMGWFRQRPGKEREGVARINGLGGVKTAYADSVKDRFTISRDNAENTVYLQMNSLKPEDTAIYYCAAKFSPAYCGGSWSNFGYWGQGTQVTVSS	> 50	–	–
N2 VHH alanine mutant S100f (VHH, PDB 2X6M) with the stated change; Kabat numbering) VHH: QGQLVESGGGSVQAGGSLRLSCAASGIDSSSYCMGWFRQRPGKEREGVARINGLGGVKTAYADSVKDRFTISRDNAENTVYLQMNSLKPEDTAIYYCAAKFSPGYCGGSWANFGYWGQGTQVTVSS	> 50	–	–
N2.12 reversion mutant A49 (VHH, as the VHH chain of m3 (N2.12) with G49 reverted to the wild-type A49; PDB 2X6M); Kabat numbering; also called N2.12 with A49) VHH: QGQLVESGGGSVQAGGSLRLSCAASGIDSSSYCMGWFRQRPGKEREGVARINGWRGIKTAYADSVKDRFTISRDNAENTVYLQMNSLKPEDTAIYYCAAKSSPGYCGGTWSNFGYWGQGTQVTVSS	–	–	fold affinity enhancement relative to wild type [1]: > 7 fold
N2 VHH alanine mutant S100d (VHH, PDB 2X6M) with the stated change; Kabat numbering) VHH: QGQLVESGGGSVQAGGSLRLSCAASGIDSSSYCMGWFRQRPGKEREGVARINGLGGVKTAYADSVKDRFTISRDNAENTVYLQMNSLKPEDTAIYYCAAKFSPGYCGGAWSNFGYWGQGTQVTVSS	> 50	–	–
N2 VHH alanine mutant N100g (VHH, PDB 2X6M) with the stated change; Kabat numbering) VHH: QGQLVESGGGSVQAGGSLRLSCAASGIDSSSYCMGWFRQRPGKEREGVARINGLGGVKTAYADSVKDRFTISRDNAENTVYLQMNSLKPEDTAIYYCAAKFSPGYCGGSWSAFGYWGQGTQVTVSS	> 50	–	–
N2 VHH alanine mutant G53 (VHH, PDB 2X6M) with the stated change; Kabat numbering) VHH: QGQLVESGGGSVQAGGSLRLSCAASGIDSSSYCMGWFRQRPGKEREGVARINGLAGVKTAYADSVKDRFTISRDNAENTVYLQMNSLKPEDTAIYYCAAKFSPGYCGGSWSNFGYWGQGTQVTVSS	> 50	–	–

The next lines start with results.

binding relative to wild type (normalised polarisation signal) [2] [%]	binding result [1]	Binder	further results
–	binds	N2.5 VHH (VHH, PDB 2X6M) with mutations in CDR2 and CDR3; One of the 17 unique variants of the enriched library (1-6 mutations in CDR2 and CDR3)) VHH: QGQLVESGGGSVQAGGSLRLSCAASGIDSSSYCMGWFRQRPGKEREGVARINGLSGVKTAYADSVKDRFTISRDNAENTVYLQMNSLKPEDTAIYYCAAKSSPGYCGGTWFSFGYWGQGTQVTVSS	–
–	binds	N2.17 reversion mutant F96 (VHH, as the VHH chain of m4 (N2.17) with S96 reverted to the wild-type F96; PDB 2X6M); Kabat numbering) VHH: QGQLVESGGGSVQAGGSLRLSCAASGIDSSSYCMGWFRQRPGKEREGVARINGWGGVKTAYADSVKDRFTISRDNAENTVYLQMNSLKPEDTAIYYCAAKFSPGYCGGTWFNFGYWGQGTQVTVSS	–
–	binds	N2.17 reversion mutant S100f (VHH, as the VHH chain of m4 (N2.17) with F100f reverted to the wild-type S100f; PDB 2X6M); Kabat numbering; also called reversion mutation S100f) VHH: QGQLVESGGGSVQAGGSLRLSCAASGIDSSSYCMGWFRQRPGKEREGVARINGWGGVKTAYADSVKDRFTISRDNAENTVYLQMNSLKPEDTAIYYCAAKSSPGYCGGTWSNFGYWGQGTQVTVSS	–
–	binds	N2.12 reversion mutant G53 (VHH, as the VHH chain of m3 (N2.12) with R53 reverted to the wild-type G53; PDB 2X6M); Kabat numbering) VHH: QGQLVESGGGSVQAGGSLRLSCAASGIDSSSYCMGWFRQRPGKEREGVGRINGWGGIKTAYADSVKDRFTISRDNAENTVYLQMNSLKPEDTAIYYCAAKSSPGYCGGTWSNFGYWGQGTQVTVSS	–
–	binds	N2.12 reversion mutant L52b (VHH, as the VHH chain of m3 (N2.12) with W52b reverted to the wild-type L52b; PDB 2X6M); Kabat numbering) VHH: QGQLVESGGGSVQAGGSLRLSCAASGIDSSSYCMGWFRQRPGKEREGVGRINGLRGIKTAYADSVKDRFTISRDNAENTVYLQMNSLKPEDTAIYYCAAKSSPGYCGGTWSNFGYWGQGTQVTVSS	–
–	binds	N2.12 reversion mutant F96 (VHH, as the VHH chain of m3 (N2.12) with S96 reverted to the wild-type F96; PDB 2X6M); Kabat numbering; also called reversion mutation (F96)) VHH: QGQLVESGGGSVQAGGSLRLSCAASGIDSSSYCMGWFRQRPGKEREGVGRINGWRGIKTAYADSVKDRFTISRDNAENTVYLQMNSLKPEDTAIYYCAAKFSPGYCGGTWSNFGYWGQGTQVTVSS	–
–	binds	N2.17 reversion mutant L52b (VHH, as the VHH chain of m4 (N2.17) with W52b reverted to the wild-type L52b; PDB 2X6M); Kabat numbering) VHH: QGQLVESGGGSVQAGGSLRLSCAASGIDSSSYCMGWFRQRPGKEREGVARINGLGGVKTAYADSVKDRFTISRDNAENTVYLQMNSLKPEDTAIYYCAAKSSPGYCGGTWFNFGYWGQGTQVTVSS	–
–	binds	N2.12 reversion mutant S100d (VHH, as the VHH chain of m3 (N2.12) with T100d reverted to the wild-type S100d; PDB 2X6M); Kabat numbering) VHH: QGQLVESGGGSVQAGGSLRLSCAASGIDSSSYCMGWFRQRPGKEREGVGRINGWRGIKTAYADSVKDRFTISRDNAENTVYLQMNSLKPEDTAIYYCAAKSSPGYCGGSWSNFGYWGQGTQVTVSS	–
–	binds	N2.17 reversion mutant S100d (VHH, as the VHH chain of m4 (N2.17) with T100d reverted to the wild-type S100d; PDB 2X6M); Kabat numbering) VHH: QGQLVESGGGSVQAGGSLRLSCAASGIDSSSYCMGWFRQRPGKEREGVARINGWGGVKTAYADSVKDRFTISRDNAENTVYLQMNSLKPEDTAIYYCAAKSSPGYCGGSWFNFGYWGQGTQVTVSS	–
–	binds	N2.16 VHH (VHH, PDB 2X6M) with mutations in CDR2 and CDR3; One of the 17 unique variants of the enriched library) VHH: QGQLVESGGGSVQAGGSLRLSCAASGIDSSSYCMGWFRQRPGKEREGVGRINGWSGVKTAYADSVKDRFTISRDNAENTVYLQMNSLKPEDTAIYYCAAKSSPGYCGGTWYNFGYWGQGTQVTVSS	–
